Assay results: patent publication US20070141625A1 (published 2007)

Target: T1, protein C (PC) (UniProt P04070 43-461)
T1 construct: Commercial PC
Experiment: inhibition by rhsEPCR 2 µM of PC activation by thrombin on EA.hy926 endothelial cells; Ki derived from the shift of Km
Procedure: Proc Natl Acad Sci USA. 1996; 93:10212-6). 5×10⁴ cells/well were incubated in a 96-well plate with 0.02 U/ml of thrombin (0.17 nM) (ERL, Swansea, United Kingdom) and growing concentrations of PC (Baxter, Deerfield, Ill., USA) between 50 and 1000 nM in Tris 20 mM buffer, pH 7.4, supplemented with NaCl 150 mM, CaCl₂ 5 mM, MgCl₂ 0.6 mM, 1% BSA, 0.001% Tween-20 and 0.02% NaN₃. After 45 minutes at room temperature, lepirudin was added (Schering A G, Berlin, Germany) at an end concentration of 0.2 μmol/L, to inhibit thrombin; 3-4 minutes later, chromogenic substrate S-2366 was added (Chromogenix, Milan, Italy) at an end concentration of 0.4 mM with the purpose of monitoring its proteolysis by APC. The increase in absorbance at 405 nm was recorded kinetically with a microplate reader (iEMS REader, Labsystems, Finland). Curve data fitting to the Michaelis-Menten equation was carried out using the Enzfitter program (Biosoft, Cambridge, United Kingdom), which calculated the Km of PC activation under those conditions. Where necessary, 45 μg/ml of purified anti-EPCR autoantibodies from patients (see below) were added simultaneously with the thrombin and PC. Thus, the effect of the anti-EPCR autoantibodies upon PC activation could be analyzed. […]

T1 sequence (P04070 43-461): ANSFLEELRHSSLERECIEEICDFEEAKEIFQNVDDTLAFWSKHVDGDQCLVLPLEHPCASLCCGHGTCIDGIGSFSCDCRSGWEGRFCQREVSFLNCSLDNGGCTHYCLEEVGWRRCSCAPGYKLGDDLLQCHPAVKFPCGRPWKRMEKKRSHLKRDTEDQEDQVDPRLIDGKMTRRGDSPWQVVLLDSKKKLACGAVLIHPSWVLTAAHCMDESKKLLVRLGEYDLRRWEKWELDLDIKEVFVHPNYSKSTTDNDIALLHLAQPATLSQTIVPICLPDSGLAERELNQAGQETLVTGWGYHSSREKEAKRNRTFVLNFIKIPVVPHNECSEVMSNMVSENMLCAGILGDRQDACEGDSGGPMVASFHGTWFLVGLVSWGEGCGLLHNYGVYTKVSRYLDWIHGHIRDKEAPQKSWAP

B1: recombinant human soluble EPCR (rhsEPCR) (receptor)
chain: SISQDASDGLQRLHMLQISYFRDPYHVWYQGNASLGGHLTHVLEGPDTNTTIIQLQPLQEPESWARTQSGLQSYLLQFHGLVRLVHQERTLAFPLTIRCFLGCELPPEGSRAHVFFEVAVNGSSFVSFRPERALWQADTQVTSGVVTFTLQQLNAYNRTRYELREFLEDTCVQYVQKHISAENTKGSQTSRSYTSAAASFLEQKLISEEDLNSAVDHHHHHH
notes: also called recombinant sEPCR; human recombinant EPCR in soluble form
B1 was tested, and the Ki was ~70 nM.
